Test [1] deals with T1, human amylin receptor (amylin 3(a) receptor: human calcitonin receptor co-expressed with RAMP-3) (human, UniProt P30988 25-474; O60896 24-148, limits assumed).
T1 sequence (looked up) 1: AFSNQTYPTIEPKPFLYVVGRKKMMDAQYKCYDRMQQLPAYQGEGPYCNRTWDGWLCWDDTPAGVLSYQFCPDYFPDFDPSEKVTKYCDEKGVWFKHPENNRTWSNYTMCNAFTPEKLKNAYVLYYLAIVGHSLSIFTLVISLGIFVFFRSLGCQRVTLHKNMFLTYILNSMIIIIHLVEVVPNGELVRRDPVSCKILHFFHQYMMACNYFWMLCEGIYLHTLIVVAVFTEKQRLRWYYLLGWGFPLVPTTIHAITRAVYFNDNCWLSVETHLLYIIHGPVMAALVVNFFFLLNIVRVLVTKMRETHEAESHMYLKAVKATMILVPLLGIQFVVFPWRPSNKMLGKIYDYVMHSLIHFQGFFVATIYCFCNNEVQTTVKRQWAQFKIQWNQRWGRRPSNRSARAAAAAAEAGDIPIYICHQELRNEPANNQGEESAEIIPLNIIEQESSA
T1 sequence (looked up) 2: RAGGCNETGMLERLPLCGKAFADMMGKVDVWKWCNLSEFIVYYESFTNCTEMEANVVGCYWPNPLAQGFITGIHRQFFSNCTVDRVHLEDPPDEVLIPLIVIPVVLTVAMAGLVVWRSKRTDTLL
Nature of the test: cell-based or functional assay.

Test [2] concerns the target T2, human calcitonin receptor (human, UniProt P30988 25-474).
T2 sequence (looked up): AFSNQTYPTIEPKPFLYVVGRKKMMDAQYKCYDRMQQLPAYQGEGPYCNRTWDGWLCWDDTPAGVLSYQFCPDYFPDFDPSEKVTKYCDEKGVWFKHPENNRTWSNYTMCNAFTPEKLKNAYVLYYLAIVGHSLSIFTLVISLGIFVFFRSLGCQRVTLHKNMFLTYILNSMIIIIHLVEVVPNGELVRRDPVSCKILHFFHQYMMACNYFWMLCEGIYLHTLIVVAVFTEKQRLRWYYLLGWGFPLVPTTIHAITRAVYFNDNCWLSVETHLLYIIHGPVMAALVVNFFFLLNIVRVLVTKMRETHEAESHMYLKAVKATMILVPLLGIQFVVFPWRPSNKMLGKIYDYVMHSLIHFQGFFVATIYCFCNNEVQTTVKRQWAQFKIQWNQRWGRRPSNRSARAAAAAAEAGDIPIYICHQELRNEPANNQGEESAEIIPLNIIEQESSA
Nature of the test: cell-based or functional assay.

Numbered stars: 1 amine (or outer) side, 2 acyl side, 3 side chain; on linkers, the order of the positions; unused ones are H or OH. Bridge positions count the residues as written; N and C are the ends. Side chains are listed from the residue outwards. Ends that are not written are not given here. * marks the point of attachment. C20 diacid = O=C(O)CCCCCCCCCCCCCCCCCCC(=O)*; γGlu = O=C(O)[C@H](CCC(=O)[*:2])N[*:1]; AEEA = NCCOCCOCC(=O)O

The results in this text go back to patent publication US20140087995A1 (published 2014).

B1: N^ε1-[2-[2-[2-[[(4S)-4-carboxy-4-(19-carboxynonadecanoylamino)butanoyl]amino]ethoxy]ethoxy]acetyl]-[Arg14,Arg17,Pro21,Pro27]-h-amylin (peptide)
peptide: K([AEEA-γGlu-C20 diacid])CNTATCATQRLARFLRHSSPNFGAIPSSTNVGSNTY-NH2
modifications: disulfide 2-7; N-terminus assumed
SMILES: CC[C@H](C)[C@H](NC(=O)[C@H](C)NC(=O)CNC(=O)[C@H](Cc1ccccc1)NC(=O)[C@H](CC(N)=O)NC(=O)[C@@H]1CCCN1C(=O)[C@H](CO)NC(=O)[C@H](CO)NC(=O)[C@H](Cc1c[nH]cn1)NC(=O)[C@H](CCCNC(=N)N)NC(=O)[C@H](CC(C)C)NC(=O)[C@H](Cc1ccccc1)NC(=O)[C@H](CCCNC(=N)N)NC(=O)[C@H](C)NC(=O)[C@H](CC(C)C)NC(=O)[C@H](CCCNC(=N)N)NC(=O)[C@H](CCC(N)=O)NC(=O)[C@@H](NC(=O)[C@H](C)NC(=O)[C@@H]1CSSC[C@H](NC(=O)[C@@H](N)CCCCNC(=O)COCCOCCNC(=O)CC[C@H](NC(=O)CCCCCCCCCCCCCCCCCCC(=O)O)C(=O)O)C(=O)N[C@@H](CC(N)=O)C(=O)N[C@@H]([C@@H](C)O)C(=O)N[C@@H](C)C(=O)N[C@@H]([C@@H](C)O)C(=O)N1)[C@@H](C)O)C(=O)N1CCC[C@H]1C(=O)N[C@@H](CO)C(=O)N[C@@H](CO)C(=O)N[C@H](C(=O)N[C@@H](CC(N)=O)C(=O)N[C@H](C(=O)NCC(=O)N[C@@H](CO)C(=O)N[C@@H](CC(N)=O)C(=O)N[C@H](C(=O)N[C@@H](Cc1ccc(O)cc1)C(N)=O)[C@@H](C)O)C(C)C)[C@@H](C)O
notes: also called compound 82
Take B1: in test [1], the “Ratio hCT/hAmylin funct.” value worked out at 59.2 and the “hAmylin-R funct. EC50” value is 0.215 nM. For the same molecule, the “hCTR funct. EC50” value in test [2] is 12.7 nM.

B2: N^ε1-[2-[2-[2-[[(4S)-4-carboxy-4-(19-carboxynonadecanoylamino)butanoyl]amino]ethoxy]ethoxy]acetyl]-[Arg17,Pro21,Pro27,Arg34]-h-amylin (peptide)
peptide: K([AEEA-γGlu-C20 diacid])CNTATCATQRLANFLRHSSPNFGAIPSSTNVGRNTY-NH2
modifications: disulfide 2-7; N-terminus assumed
SMILES: CC[C@H](C)[C@H](NC(=O)[C@H](C)NC(=O)CNC(=O)[C@H](Cc1ccccc1)NC(=O)[C@H](CC(N)=O)NC(=O)[C@@H]1CCCN1C(=O)[C@H](CO)NC(=O)[C@H](CO)NC(=O)[C@H](Cc1c[nH]cn1)NC(=O)[C@H](CCCNC(=N)N)NC(=O)[C@H](CC(C)C)NC(=O)[C@H](Cc1ccccc1)NC(=O)[C@H](CC(N)=O)NC(=O)[C@H](C)NC(=O)[C@H](CC(C)C)NC(=O)[C@H](CCCNC(=N)N)NC(=O)[C@H](CCC(N)=O)NC(=O)[C@@H](NC(=O)[C@H](C)NC(=O)[C@@H]1CSSC[C@H](NC(=O)[C@@H](N)CCCCNC(=O)COCCOCCNC(=O)CC[C@H](NC(=O)CCCCCCCCCCCCCCCCCCC(=O)O)C(=O)O)C(=O)N[C@@H](CC(N)=O)C(=O)N[C@@H]([C@@H](C)O)C(=O)N[C@@H](C)C(=O)N[C@@H]([C@@H](C)O)C(=O)N1)[C@@H](C)O)C(=O)N1CCC[C@H]1C(=O)N[C@@H](CO)C(=O)N[C@@H](CO)C(=O)N[C@H](C(=O)N[C@@H](CC(N)=O)C(=O)N[C@H](C(=O)NCC(=O)N[C@@H](CCCNC(=N)N)C(=O)N[C@@H](CC(N)=O)C(=O)N[C@H](C(=O)N[C@@H](Cc1ccc(O)cc1)C(N)=O)[C@@H](C)O)C(C)C)[C@@H](C)O
notes: also called compound 78
Take B2: the “hAmylin-R funct. EC50” value in test [1] was 0.316 nM. In addition, the “hCTR funct. EC50” value in test [2] is 8.17 nM.
